# Experimental data as given in paper PMC7393678, “First Evidence of Acyl-Hydrolase/Lipase Activity From Human Probiotic Bacteria: Lactobacillus rhamnosus GG and Bifidobacterium longum NCC 2705” (Frontiers in Microbiology, 2020).
# B1: BlLyp (Bifidobacterium longum NCC2705) (protein)
# chain: PPDNRRVSRLIRHTGKGLSGSFPFCSCRSWAKVGVFALPNPPLKGPVVMPINEALFAAMKAASYIKPNAGKSYKLQRVAEELIAKQAPANPKCRVEDAFAPMADGYAVPLRVFTPLVAYGAPLPEALEESSANGTPVASAISAILPAVLPKVLPKILIKESTSSGNADGISGNANTELPSVTPRGTILFFHGGGWTTGGINLYTQACAHMAVRLQRRVISVEYRLAPEYRFPTAVEDCYEVARQLFAGELPISGVGGSVDVDHPQSAAPTAPAGGGDISATIPAPDPDSIVLFGDSAGGNLAAAVSLMARDRGEFMPRTQMLLYPVVGNDYNPETSPFESVRTNGTDYILTAQDMADYIDMYRSSVADLTNPYFAPLTAHDLSNQPRTLVLSAEYCPLRDEDEAYARRLQLVNDNVSCYRIHDGIHGYLLNTSAVGLVATTYRIIEHFLDGTPLEPAPGTGTTANAPEGGDAWQDVLGTD
# notes: C-terminal His6 (pET21b); E. coli; monomer at pH 7
# Experiments:
# LrLyp [1] = tested on: T1, LrLyp; test: p-nitrophenol release at […] nm, initial rates, substrate inhibition model; type: biochemical, Lacticaseibacillus rhamnosus; conditions: substrate inhibition constant, second site; pH 7, 37°C, 20 mM McIlvaine buffer, substrate 0.1-9 mM
# T1 construct: C-terminal His6 (pET21b); E. coli; probably monomer
# LrLyp [2] = tested on: T1, LrLyp; test: as above; type: biochemical, Lacticaseibacillus rhamnosus; conditions: pH 7, 37°C, 20 mM McIlvaine buffer, substrate 0.1-9 mM from DMSO/Triton X-100 stock; apparent constant from substrate inhibition fit; read-out: KMapp
# purified protein = substrate: CCCCCCCCCCCC(=O)Oc1ccc([N+](=O)[O-])cc1; test: purified protein; type: biochemical, Bifidobacterium longum; conditions: pH 7, 37°C, 20 mM McIlvaine buffer, substrate 0.1-9 mM from DMSO/Triton X-100 stock, apparent constant
Km (LrLyp [2]) [mM],Molecule,KIapp (LrLyp [1]) [mM],Km (purified protein) [mM],Vmax (purified protein) [µmol/min/mg],kcat (purified protein) [s⁻¹],kcat/Km (purified protein) [M⁻¹ s⁻¹]
11.4,CCCCCCCCCCCC(=O)Oc1ccc([N+](=O)[O-])cc1 [pNP-laurate],1.57,–,–,–,–
–,B1,–,2.56,0.05,0.04,16
